Literature values, collected in US12453725B2, “Treatment of inflammatory disease” (Celleron Therapeutics Limited, priority 2019, dated 2025).

Assays:
[1] = human, in vivo, cited from earlier work
[2] = human, in vivo; cited from earlier work
[3] = in vivo; cited from earlier work

Substance | incidence of grade 3/4 colitis ([1]; 5 mg/kg) [%] | enterocolitis (grade 3 or 4 symptoms and/or biopsy proven) [1] [%] | grade 3/4 diarrhoea, patients [1] | abnormal liver tests [2] | diarrhoea or colitis [2] | disorders of hormone-producing glands [2] | immune-related colitis, patients [2] [%] | kidney inflammation [2] | lung inflammation [2] | rash [2] | colitis, listed frequency of GI side effect [3]
ipilimumab: approved checkpoint inhibitor monoclonal antibody targeting CTLA-4 | 13 | 21 | 10% | – | – | – | – | – | – | – | –
nivolumab: human monoclonal antibody that blocks the interaction between PD-1 and its ligands, PD-L1 and PD-L2; IgG4 kappa immunoglobulin | – | – | 1%-2% | clinical trials, between 7 patients in 100 had abnormal liver | nivolumab clinical trials, 13 patients in 100 developed | trials, 10 patients in 100 developed disorders of hormone- | 13 | nivolumab clinical trials, 3 patients in 100 developed kidney | clinical trials, 3 patients in 100 developed lung | between 26 patients in 100 developed rash. Signs or | –
pembrolizumab: humanized IgG4 monoclonal antibody that binds the programmed cell death-1 receptor | – | – | 1%-2% | – | – | – | – | – | – | – | common
